{"source": "patent US12018066", "about": "(TRIAD NATIONAL SECURITY, dated 2024)", "binders": {"B1": {"name": "B04 IgG1 (antibody, V domains shown)", "VH": "QVQLVESGAEVKKPGASVKVSCKASGYTFTRYYMHWVRQAPGQGLEWMGIINPSGGTTSYAQKFQGRVTMTRDTSTSTVYMELSSLRSEDTAVYYCARSFGELTSFDYWGQGTLVTVSS", "VL": "SYVLTQPPSVSVAPGKTARITCGGNNIGIRSVHWYQQKPGQAPVLVIYYDSDRPSGIPERFSGSKSGNTATLTISRVEAGDEADYYCQVWDSSSDHPVFGGGTKLTVL"}, "B2": {"name": "S01 IgG1 (antibody, V domains shown)", "VH": "QVQLVESGGGLVKPGGSLRLSCAASGFTVGSNYMSWVRQAPGKGLEWVSVIYSGGSTYYADSVKGRFTISRDNSKNTLYLQMNSLRAEDTAVYYCARGSSGAWYFDLWGRGTLVTVSS", "VL": "EIVMTQSPSSLSASVGDSVTITCQASQDISNYLNWYQQKPGKAPKLLIYDASNLETGVPSRFSGGGSGTDFTLTITSLQPEDIATYYCQQYDNFPPTFGPGTKVDIK", "notes": "also called 501"}}, "key": {"[1]": {"biological_target": "T1, SARS-CoV-2 spike protein receptor binding domain (RBD2) (SARS-CoV-2, UniProt P0DTC2 319-537)", "test": "SPR sandwich binning, ligand G07"}, "[2]": {"biological_target": "T1, SARS-CoV-2 spike protein receptor …", "test": "SPR, IgG"}, "[3]": {"biological_target": "T1, SARS-CoV-2 spike protein receptor …", "test": "SPR sandwich binning, ligand H01"}, "[4]": {"biological_target": "T1, SARS-CoV-2 spike protein receptor …", "test": "SPR sandwich binning, ligand E01"}, "[5]": {"biological_target": "T2, human ACE2 receptor on HEK cells (Human ACE2 293 cell line) (human, UniProt Q9BYF1 18-805)", "T2 construct": "whole, on cells; also called HEK-ACE2; ACE2 293 cells", "T2 sequence (Q9BYF1 18-805)": "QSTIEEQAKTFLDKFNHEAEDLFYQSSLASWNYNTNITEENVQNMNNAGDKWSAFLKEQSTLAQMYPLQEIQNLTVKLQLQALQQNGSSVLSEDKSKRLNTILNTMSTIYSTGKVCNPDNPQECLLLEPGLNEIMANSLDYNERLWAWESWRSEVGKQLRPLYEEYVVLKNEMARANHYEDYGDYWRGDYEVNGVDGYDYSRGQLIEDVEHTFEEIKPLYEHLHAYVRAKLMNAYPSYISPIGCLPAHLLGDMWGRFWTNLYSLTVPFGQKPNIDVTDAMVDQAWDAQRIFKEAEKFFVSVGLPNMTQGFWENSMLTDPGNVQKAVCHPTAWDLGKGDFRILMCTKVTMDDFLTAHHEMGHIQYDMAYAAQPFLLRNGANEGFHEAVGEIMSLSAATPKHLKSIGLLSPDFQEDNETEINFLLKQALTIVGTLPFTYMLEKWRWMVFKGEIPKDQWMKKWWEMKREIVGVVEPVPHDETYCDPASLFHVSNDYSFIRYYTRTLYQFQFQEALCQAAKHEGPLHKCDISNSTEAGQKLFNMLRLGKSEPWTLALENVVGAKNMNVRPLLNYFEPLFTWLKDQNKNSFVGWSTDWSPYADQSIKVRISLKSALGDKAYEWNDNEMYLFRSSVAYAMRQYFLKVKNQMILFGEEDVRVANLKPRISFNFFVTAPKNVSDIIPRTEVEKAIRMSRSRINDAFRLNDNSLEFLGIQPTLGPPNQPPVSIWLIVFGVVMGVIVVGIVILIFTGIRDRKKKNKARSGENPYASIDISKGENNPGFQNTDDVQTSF", "test": "fluorescence microscopy, PE-labelled IgG on HEK-ACE2 cells without RBD2-sfGFP"}, "[6]": {"biological_target": "T1, SARS-CoV-2 spike protein receptor …", "test": "SPR sandwich binning, ligand B04"}, "[7]": {"biological_target": "T1, SARS-CoV-2 spike protein receptor …", "test": "SPR, immobilized antibody, RBD injected, 1:1 fit"}, "[8]": {"biological_target": "T1, SARS-CoV-2 spike protein receptor …", "test": "SPR sandwich binning, ligand S01"}, "[9]": {"biological_target": "T1, SARS-CoV-2 spike protein receptor …", "test": "SPR sandwich binning, ligand Anti-His"}, "[10]": {"biological_target": "T1, SARS-CoV-2 spike protein receptor …", "test": "SPR sandwich binning, ligand F07"}, "[11]": {"biological_target": "T1, SARS-CoV-2 spike protein receptor …", "test": "SPR"}, "[12]": {"biological_target": "T1, SARS-CoV-2 spike protein receptor …", "test": "SPR sandwich binning, ligand CR3022"}, "[13]": {"biological_target": "T1, SARS-CoV-2 spike protein receptor …"}, "[14]": {"biological_target": "T1, SARS-CoV-2 spike protein receptor …", "test": "SPR sandwich binning, ligand E08"}, "[15]": {"biological_target": "SARS-CoV-2 spike protein on whole SARS-CoV-2 virus (SARS-CoV-2, UniProt P0DTC2 14-1273)", "test": "cell-based or functional assay"}, "[16]": {"biological_target": "T1, SARS-CoV-2 spike protein receptor …", "test": "SPR sandwich binning, ligand NN54"}, "[17]": {"biological_target": "T1, SARS-CoV-2 spike protein receptor …", "test": "SPR sandwich binning, ligand H05"}, "[18]": {"biological_target": "T1, SARS-CoV-2 spike protein receptor …", "remark": "listed apart in the source"}}, "note": "Several values for one entry are separate records, joined by “and”; a condition that tells them apart may be missing. Equal entries are not always repeated. Where two headings read alike, the source gives them in different places."}
{"binder": "B1", "values": [{"measurement": "normalized analyte binding to RBD2 held by the immobilized ligand", "setting": "[1]", "result": -0.07}, {"measurement": "Kd", "setting": "[2]", "result": "100 nM and 300 nM"}, {"measurement": "normalized analyte binding to RBD2 held by the immobilized ligand", "setting": "[3]", "result": 0.71}, {"measurement": "normalized analyte binding to RBD2 held by the immobilized ligand", "setting": "[4]", "result": -0.15}, {"measurement": "binding result", "setting": "[5]", "result": "no binding (tested: 1 ug/mL)"}, {"measurement": "normalized analyte binding to RBD2 held by the immobilized ligand", "setting": "[6]", "result": -0.11}, {"measurement": "Kd", "setting": "[7]", "result": 210, "unit": "nM"}, {"measurement": "normalized analyte binding to RBD2 held by the immobilized ligand", "setting": "[8]", "result": -0.59}, {"measurement": "normalized analyte binding to RBD2 held by the immobilized ligand", "setting": "[9]", "result": 1.68}, {"measurement": "normalized analyte binding to RBD2 held by the immobilized ligand", "setting": "[10]", "result": 0.05}, {"measurement": "Kd", "setting": "[11]", "result": 210, "unit": "nM"}, {"measurement": "normalized analyte binding to RBD2 held by the immobilized ligand", "setting": "[12]", "result": 2.22}, {"measurement": "Kd", "setting": "[13]", "result": 208, "unit": "nM"}, {"measurement": "normalized analyte binding to RBD2 held by the immobilized ligand", "setting": "[14]", "result": 2.24}, {"measurement": "NT50 (nM), half neutralization titer", "setting": "[15]", "result": 56.7, "unit": "nM"}, {"measurement": "Nmax (%), neutralization maximum", "setting": "[15]", "result": 53.3, "unit": "%"}, {"measurement": "normalized analyte binding to RBD2 held by the immobilized ligand", "setting": "[16]", "result": 2.5}, {"measurement": "normalized analyte binding to RBD2 held by the immobilized ligand", "setting": "[17]", "result": 1.87}]}
{"binder": "B2", "values": [{"measurement": "normalized analyte binding to RBD2 held by the immobilized ligand", "setting": "[3]", "result": -0.03}, {"measurement": "normalized analyte binding to RBD2 held by the immobilized ligand", "setting": "[4]", "result": -0.13}, {"measurement": "binding result", "setting": "[5]", "result": "no binding (tested: 1 ug/mL)"}, {"measurement": "normalized analyte binding to RBD2 held by the immobilized ligand", "setting": "[6]", "result": 0.06}, {"measurement": "Kd", "setting": "[18]", "result": 174, "unit": "nM"}, {"measurement": "Kd", "setting": "[7]", "result": 170, "unit": "nM"}, {"measurement": "normalized analyte binding to RBD2 held by the immobilized ligand", "setting": "[8]", "result": -0.03}, {"measurement": "normalized analyte binding to RBD2 held by the immobilized ligand", "setting": "[9]", "result": 1}, {"measurement": "normalized analyte binding to RBD2 held by the immobilized ligand", "setting": "[10]", "result": 0.48}, {"measurement": "Kd", "setting": "[11]", "result": 170, "unit": "nM"}, {"measurement": "normalized analyte binding to RBD2 held by the immobilized ligand", "setting": "[12]", "result": 1.39}, {"measurement": "normalized analyte binding to RBD2 held by the immobilized ligand", "setting": "[14]", "result": 1.79}, {"measurement": "NT50 (nM), half neutralization titer", "setting": "[15]", "result": 14.6, "unit": "nM"}, {"measurement": "Nmax (%), neutralization maximum", "setting": "[15]", "result": 106, "unit": "%"}, {"measurement": "normalized analyte binding to RBD2 held by the immobilized ligand", "setting": "[16]", "result": 1.64}, {"measurement": "normalized analyte binding to RBD2 held by the immobilized ligand", "setting": "[17]", "result": 1.2}]}
